These results are taken from patent publication US7482133B2, “Catalytic domains of β(1,4)-galactosyltransferase I having altered donor and acceptor specificities, domains that promote in vitro protein folding, and methods for their use” (The United States of America as represented by the …, priority 2003, dated 2009).

Series [1] can be described thus: β4Gal-T1 enzyme assay of in vitro folded CD and SRCD proteins. The series is classed as biochemical. The conditions noted are these: folded under condition I. As for the experimental part:
β4Gal-T1 Enzyme Assays: The in vitro assay for β4Gal-T1 enzyme activity was performed as described (Boeggeman et al., Glycobiology, 12:395-407 (2002)). The ^3H-labeled-UDP-Gal was used as sugar donor and GlcNAc as the sugar acceptor. A reaction without GlcNAc was used as a control.
Binding of recombinant proteins to UDP-affinity column: UDP-agarose was used to bind the active proteins at 4° C. Columns containing 1 ml bed volume of UDP-agarose were pre-equilibrated with 10 ml of 25 mM cacodylic buffer, pH 7.6, containing 25 mM MnCl2. The renatured protein solutions (0.5 mg) were adjusted to the pre-equilibration buffer conditions and applied to the columns. After loading the sample, the pass-through was re-cycled. It was then analyzed for the unbound protein by SDS-PAGE. The columns were washed 3× with 1-ml portions of equilibration buffer. The bound protein was eluted with the elution buffer consisting of 25 mM cacodylic buffer, pH 7.6, 25 mM EDTA and 1 M NaCl. Fractions of 0.5 ml were collected from the columns, and aliquots were analysed by SDS-PAGE. For enzymatic analysis the appropriate fractions were pooled and dialysed against 50 mM Tris-HCl pH 8.0 at 4° C. […]

Series [2] in a line: Stability of the folded recombinant proteins. The conditions noted are these: after folding and purification from inclusion bodies. In kind it is physicochemical. The procedure: Mutation of the stem region of bovine β4Gal-T1 to inhibit proteolysis: The wild-type bovine SRCDβ4Gal-T1, which has Ser at position 96, was expressed in E. coli. […] The protein was electroblotted to polyvinylidene difluoride membrane, and the N-terminal sequence of the cleaved fragment was determined by Edman degradation at the Protein Chemistry Laboratory, NCI-Frederick. The N-terminal sequence of the fragment was determined as SRAPSNLD (SEQ ID NO: 21). This corresponds to the cleavage at Ser96 within the sequence region KPR^96SRAPSNLD (SEQ ID NO: 22). To prevent this proteolytic digestion within the stem region, we now constructed a mutant substituting Ala in place of Ser96. This prevented the cleavage within the stem region of bovine β4Gal-T1 keeping the recombinant protein intact for a long period of time. Even though, the experimental results described in this study are with the mutant bovine S96A-SRCDβ4Gal-T1 (FIG. 3A), for the sake of convenience in abbreviation this protein is simply referred to as bovine SRCDβ4Gal-T1.

The nature of series [3]: Gal-T specific activity assay. In kind it is biochemical. The conditions noted are these: donor 500 μM; acceptor β-benzyl-GlcNAc 25 mM (10 mM for C342T); saturating conditions. As for the experimental part:
(§1) For example, the galactose and N-acetylgalactosyltransferase activity of β(1,4)-galactosyltransferase I can be determined using the following assay conditions. […], 10 mM MnCl2, 10 mM Tris-HCl (pH 8.0), 500 μM UDP-Gal or UDP-GalNAc, and 20 ng of β(1,4)-galactosyltransferase I can be incubated at 37° C. for 10 minutes to promote coupling of a donor sugar to an acceptor sugar. While these conditions are provided as an example, it is understood that many other conditions may be used to chemically link a donor to an acceptor using the altered catalytic domains of the invention.
(§2) Gal-T and GalNAc-T Enzyme Assays: The protein concentrations were measured using the Bio-Rad protein assay kit, based on the method of Bradford and further verified on SDS gel. […] The activities were measured using UDP-Gal or UDP-GalNAc as sugar nucleotide donors, and GlcNAc and Glc as the acceptor sugars. For the specific activity measurements, […], 10 mM MnCl2, 10 mM Tris-HCl, pH 8.0, 500 μM UDP-Gal or UDP-GalNAc, 20 ng of Gal-T1, and 0.5 μCl of [^3H]UDP-Gal or [^3H]UDP-GalNAc was used for each Gal-T or GalNAc-T reaction. The incubation was carried out at 37° C. for 10 min. […] The column was washed successfully with 300, 400, and 500 μl of water, and the column flow-through was diluted with Biosafe scintillation fluid; radioactivity was measured with a Beckman counter. A reaction without the acceptor sugar was used as a control. A similar assay was carried out to measure the GalNAc-T activity with Glc and other acceptors in the presence of 50 μM bovine LA (Sigma).

The nature of series [4]: GalNAc-T specific activity assay. In kind it is biochemical. The procedure:
as §1, §2

Series [5] can be described thus: GlcNAc-T specific activity assay. The conditions noted are these: donor 500 μM; acceptor β-benzyl-GlcNAc 25 mM. The series is classed as biochemical.
A short description of series [6]: Two-substrate kinetic constants, Gal-T reaction. In kind it is biochemical. From the text:
(§3) Studies for Determining the Kinetic Constants: The true Km of the donor (KA) and of the acceptor (KB), the dissociation constant of the donor, Ki(a), and kcat were obtained using two-substrate analyses and the primary plots of five concentrations of donor (UDP-Gal or UDP-GalNAc) and five concentrations of acceptor, and the corresponding secondary plots of the intercepts and slopes. Initial rate conditions were linear with respect to time. A suitable range of donor and acceptor concentrations were chosen, which allowed an accurate Michaelis-Menten plot to be derived. The data were also analyzed for a general two-substrate system using the following equations (Zhang et al., Glycobiology, 9:815-822 (1999)) with the software EnzFitter, a Biosoft nonlinear curve-fitting program for Windows.
(§4) [formula] Here v is the initial velocity and the rate equation for sequential symmetrical initial velocity pattern associated with Equation 1, an ordered or random equilibrium mechanism in which substrate A dissociates well from the E-S complex with a dissociation constant of Ki(a). Equation 2 is for asymmetric initial velocity pattern for a double displacement or “ping-pong” mechanism. The kinetic parameters KA, KB, Ki(a), and Vmax, were obtained from the fitted curves using the above rate equations. The graphical method and EnzFitter program gave very similar kinetic parameters. In the N-acetylgalactosamine transferase (GalNAc-T) assay, the maximum substrate concentrations used for UDP-GalNAc and GlcNAc were 1 and 200 mM, respectively. However, in the galactose transferase (Gal-T) assay, because of the limited solubility of GlcNAc in water, the concentration of GlcNAc was limited to no more than […] (which is 2-fold higher than its Km value), whereas up to 300 μM UDP-Gal were used.

A short description of series [7]: Two-substrate kinetic constants, GalNAc-T reaction. In kind it is biochemical.
Source text: as §3, §4

Series [8] in a line: GalNAc-T activity in absence and presence of LA, acceptor GlcNAc. In kind it is biochemical. The conditions noted are these: acceptor GlcNAc 100 mM, 500 μM UDP-GalNAc, 37° C., 10 minutes. As for the experimental part:
(§5) Gal-T and GalNAc-T Enzyme Assays: The protein concentrations were measured using the Bio-Rad protein assay kit, based on the method of Bradford and further verified on SDS gel. […] The activities were measured using UDP-Gal or UDP-GalNAc as sugar nucleotide donors, and GlcNAc and Glc as the acceptor sugars. For the specific activity measurements, a 100-μl incubation mixture containing 50 mM β-benzyl-GlcNAc, 10 mM MnCl2, 10 mM Tris-HCl, pH 8.0, 500 μM UDP-Gal or UDP-GalNAc, 20 ng of Gal-T1, and 0.5 μCl of [^3H]UDP-Gal or [^3H]UDP-GalNAc was used for each Gal-T or GalNAc-T reaction. The incubation was carried out at 37° C. for 10 min. […] The column was washed successfully with 300, 400, and 500 μl of water, and the column flow-through was diluted with Biosafe scintillation fluid; radioactivity was measured with a Beckman counter. A reaction without the acceptor sugar was used as a control. […]

Series [9] in a line: GalNAc-T activity in absence and presence of LA, acceptor Glc. In kind it is biochemical. The conditions noted are these: for GalNAc-T activity: acceptor Glc 100 mM, 500 μM UDP-GalNAc, 37° C., 10 minutes. The procedure: as §5
Series [10] is described as follows: GalNAc-T activity in absence and presence of LA, acceptor Glucosamine. The series is classed as biochemical. The conditions noted are these: acceptor Glucosamine 100 mM, 500 μM UDP-GalNAc, 37° C., 10 minutes. As for the experimental part:
as §5

The mark [11] stands for this setting: UDP-N-acetylgalactosamine → GlcNAc.

B1: human SRCDβ4Gal-T1: human stem region/catalytic domain β4Gal-T1, not mutated (protein, listed as Homo sapiens)
chain: RDLSRLPQLVGVSTPLQGGSNSAAAIGQSSGDLRTGGARPPPPLGASSQPRPGGDSSPVVDSGPGPASNLTSVPVPHTTALSLPACPEESPLLVGPMLIEFNMPVDLELVAKQ
On to B1, for which the “specific activity after elution from UDP-agarose versus before loading” value in series [1] is 6 fold. Also, the “stability against cleavage within the stem region” value in [2] was “only after long periods of time”.

B2: Y289L_C342T: bovine Gal-T1 catalytic domain (residues 130-402), Tyr-289 exchanged with Leu, with Cys-342 to Thr mutation (protein)
chain: SLTACPEESPLLVGPMLIEFNIPVDLKLIEQQNPKVKLGGRYTPMDCISPHKVAIIILFRNRQEHLKYWLYYLHPMVQRQQLDYGIYVINQAGESMFNRAKLLNVGFKEALKDYDYNCFVFSDVDLIPMNDHNTYRCFSQPRHISVAMDKFGFSLPYVQLFGGVSALSKQQFLSINGFPNNYWGWGGEDDDIYNRLAFRGMSVSRPNAVIGKTRMIRHSRDKKNEPNPQRFDRIAHTKETMLSDGLNSLTYMVLEVQRYPLYTKITVDIGTPS
With B2, the “UDP-galactose → GlcNAc Gal-T activity” value in series [3] came out at 16.2 pmol/min/ng. Also, the “galactose transferase versus N-acetylgalactosyltransferase activity” value in [4] (comparison in words (Table III, FIG. 1)) is “equally strong galactose transferase and N-acetylgalactosyltransferase activities”. In series [4] (donor 500 μM, acceptor β-benzyl-GlcNAc 25 mM), the “UDP-GalNAc → GlcNAc GalNAc-T activity” value was determined as 27.3 pmol/min/ng. Besides, the “UDP-GlcNAc → GlcNAc GlcNAc-T activity” value in [5] is 8.2 pmol/min/ng. For the same molecule, in series [6] (Gal-T1 reaction), the “catalytic constant (kcat) relative to wild type” value was “comparable with the wild type”. In series [6] (Gal-T reaction), the “Km for the acceptor relative to wild-type Gal-T1” value is around 20 fold. Also, the “KA (true Km of the donor), Gal-T” value in series [6] (UDP-galactose → GlcNAc) was 75 (1) μM. For the same molecule, the KB (true Km of the acceptor), Gal-T in series [6] (UDP-galactose → GlcNAc) turned out to be 198 mM. The molecule further registered a Kcat., Gal-T in [6] (UDP-galactose → GlcNAc, unit assumed) of 8.5 s⁻¹. Moreover, in [7] (GalNAc reaction), the “catalytic constant (kcat), fold higher” value is 3-5 fold. In addition, in series [7] (setting [11]), the “KA (true Km of the donor), GalNAc-T” value is on record as 854 (8) μM. The “KB (true Km of the acceptor), GalNAc-T” value in series [7] (setting [11]) was 51 (1) mM. For the same molecule, the “Kcat., GalNAc-T” value in series [7] (setting [11]) was found to be 4.0. Moreover, the GalNAc-T activity in series [8] (+LA 55 μM) amounted to 3.3 pmol/min/ng; in [8] (−LA), 31.3 pmol/min/ng; in series [9] (+LA 55 μM) it was 34.8 pmol/min/ng; in series [9] (−LA) it was 2.6 pmol/min/ng; in series [10] (+LA 55 μM), 5.0 pmol/min/ng; in series [10] (−LA), 1.8 pmol/min/ng. In addition, the “acceptor preference of GalNAc transfer” value in series [9] (in the presence of LA) is recorded as “transfer GalNAc preferably to Glc rather than to GlcNAc”.
